# Source: the supplement of paper PMC5998384
# Columns and labels:
# HeLa Kyoto [1] = assay: solubility in G1/S (NP-40 vs SDS abundance) (log2 ratio); higher = more soluble; conditions: cell cycle stage: G1/S
# HeLa Kyoto [2] = assay: melting temperature (median over replicates), in situ; higher = more thermally stable
# HeLa Kyoto [3] = assay: solubility change mitosis vs G1/S (difference of NP-40 vs SDS log2 ratios) (log2 ratio difference); higher = more soluble in mitosis
# HeLa Kyoto [4] = assay: thermal stability score vs G1/S (z-score of summed log2 fold changes over temperatures); higher = more thermally stable than in G1/S
# [5] = cell cycle stage: early G1 (4.5 h after nocodazole release)
# 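For melting temperature (median over replicates), in situ in this document: HeLa Kyoto cells synchronized by double thymidine or nocodazole block, proteins quantified by TMT10plex mass spectrometry, three independent biological replicates.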
# 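For solubility change mitosis vs G1/S (difference of NP-40 vs SDS log2 ratios) in this document: synchronized HeLa Kyoto cells (double thymidine block for G1/S, nocodazole release for mitosis), protein amounts in NP-40 versus SDS lysates quantified by mass spectrometry, three biological replicates.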
# 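For solubility in G1/S (NP-40 vs SDS abundance) in this document: HeLa Kyoto cells arrested at G1/S by double thymidine block, proteins quantified by TMT10plex mass spectrometry in mild NP-40 versus SDS extracts, three biological replicates.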
# 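For thermal stability score vs G1/S (z-score of summed log2 fold changes over temperatures) in this document: synchronized HeLa Kyoto cells, proteins quantified by TMT10plex mass spectrometry, three biological replicates, mitosis taken 0.5 h after nocodazole release, G1/S directly after double thymidine block.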
Sequence,solubility in G1/S (log2) (HeLa Kyoto [1]),melting temperature (HeLa Kyoto [2]; cell cycle stage: G1/S) [°C],melting temperature (HeLa Kyoto [2]; cell cycle stage: mitosis) [°C],solubility change mitosis (log2) (HeLa Kyoto [3]),thermal stability score (HeLa Kyoto [4]; [5]),thermal stability score (HeLa Kyoto [4]; cell cycle stage: mitosis)
MAAPSAGSWSTFQHKELMAADRGRRILGVCGMHPHHQETLKKNRVVLAKQLLLSELLEHLLEKDIITLEMRELIQAKVGSFSQNVELLNLLPKRGPQAFDAFCEALRETKQGHLEDMLLTTLSGLQHVLPPLSCDYDLSLPFPVCESCPLYKKLRLSTDTVEHSLDNKDGPVCLQVKPCTPEFYQTHFQLAYRLQSRPRGLALVLSNVHFTGEKELEFRSGGDVDHSTLVTLFKLLGYDVHVLCDQTAQEMQEKLQNFAQLPAHRVTDSCIVALLSHGVEGAIYGVDGKLLQLQEVFQLFDNANCPSLQNKPKMFFIQACRGDETDRGVDQQDGKNHAGSPGCEESDAGKEKLPKMRLPTRSDMICGYACLKGTAAMRNTKRGSWYIEALAQVFSERACDMHVADMLVKVNALIKDREGYAPGTEFHRCKEMSEYCSTLCRHLYLFPGHPPT [CASP2],0.0545,50.2,51.5,-0.0504,0.766,3.33
MAAPSPSGGGGSGGGSGSGTPGPVGSPAPGHPAVSSMQGKRKALKLNFANPPFKSTARFTLNPNPTGVQNPHIERLRTHSIESSGKLKISPEQHWDFTAEDLKDLGEIGRGAYGSVNKMVHKPSGQIMAVKRIRSTVDEKEQKQLLMDLDVVMRSSDCPYIVQFYGALFREGDCWICMELMSTSFDKFYKYVYSVLDDVIPEEILGKITLATVKALNHLKENLKIIHRDIKPSNILLDRSGNIKLCDFGISGQLVDSIAKTRDAGCRPYMAPERIDPSASRQGYDVRSDVWSLGITLYELATGRFPYPKWNSVFDQLTQVVKGDPPQLSNSEEREFSPSFINFVNLCLTKDESKRPKYKELLKHPFILMYEERAVEVACYVCKILDQMPATPSSPMYVD [MAP2K4],0.456,50.7,51.5,0.0151,0.539,0.431
MAAPVDLELKKAFTELQAKVIDTQQKVKLADIQIEQLNRTKKHAHLTDTEIMTLVDETNMYEGVGRMFILQSKEAIHSQLLEKQKIAEEKIKELEQKKSYLERSVKEAEDNIREMLMARRAQ [PFDN1],0.242,52.9,52.4,0.291,-5.42,-7.79
MAAQCVRLARRSLPALALSLRPSPRLLCTATKQKNSGQNLEEDMGQSEQKADPPATEKTLLEEKVKLEEQLKETVEKYKRALADTENLRQRSQKLVEEAKLYGIQAFCKDLLEVADVLEKATQCVPKEEIKDDNPHLKNLYEGLVMTEVQIQKVFTKHGLLKLNPVGAKFDPYEHEALFHTPVEGKEPGTVALVSKVGYKLHGRTLRPALVGVVKEA [GRPEL1],0.661,51.2,51,0.707,-2.01,-2.29
MAAQRPLRVLCLAGFRQSERGFREKTGALRKALRGRAELVCLSGPHPVPDPPGPEGARSDFGSCPPEEQPRGWWFSEQEADVFSALEEPAVCRGLEESLGMVAQALNRLGPFDGLLGFSQGAALAALVCALGQAGDPRFPLPRFILLVSGFCPRGIGFKESILQRPLSLPSLHVFGDTDKVIPSQESVQLASQFPGAITLTHSGGHFIPAAAPQRQAYLKFLDQFAE [OVCA2],0.171,49.8,51.5,0.0456,-1.18,-0.0698
MAAQRRSLLQSEQQPSWTDDLPLCHLSGVGSASNRSYSADGKGTESHPPEDSWLKFRSENNCFLYGVFNGYDGNRVTNFVAQRLSAELLLGQLNAEHAEADVRRVLLQAFDVVERSFLESIDDALAEKASLQSQLPEGVPQHQLPPQYQKILERLKTLEREISGGAMAVVAVLLNNKLYVANVGTNRALLCKSTVDGLQVTQLNVDHTTENEDELFRLSQLGLDAGKIKQVGIICGQESTRRIGDYKVKYGYTDIDLLSAAKSKPIIAEPEIHGAQPLDGVTGFLVLMSEGLYKALEAAHGPGQANQEIAAMIDTEFAKQTSLDAVAQAVVDRVKRIHSDTFASGGERARFCPRHEDMTLLVRNFGYPLGEMSQPTPSPAPAAGGRVYPVSVPYSSAQSTSKTSVTLSLVMPSQGQMVNGAHSASTLDEATPTLTNQSPTLTLQSTNTHTQSSSSSSDGGLFRSRPAHSLPPGEDGRVEPYVDFAEFYRLWSVDHGEQSVVTAP [TAB1],0.302,49.4,49.7,-0.0812,-0.0541,1.34
MAARAGFQSVAPSGGAGASGGAGAAAALGPGGTPGPPVRMGPAPGQGLYRSPMPGAAYPRPGMLPGSRMTPQGPSMGPPGYGGNPSVRPGLAQSGMDQSRKRPAPQQIQQVQQQAVQNRNHNAKKKKMADKILPQRIRELVPESQAYMDLLAFERKLDQTIMRKRLDIQEALKRPIKQKRKLRIFISNTFNPAKSDAEDGEGTVASWELRVEGRLLEDSALSKYDATKQKRKFSSFFKSLVIELDKDLYGPDNHLVEWHRTATTQETDGFQVKRPGDVNVRCTVLLMLDYQPPQFKLDPRLARLLGIHTQTRPVIIQALWQYIKTHKLQDPHEREFVICDKYLQQIFESQRMKFSEIPQRLHALLMPPEPIIINHVISVDPNDQKKTACYDIDVEVDDTLKTQMNSFLLSTASQQEIATLDNKIHETIETINQLKTQREFMLSFARDPQGFINDWLQSQCRDLKTMTDVVGNPEEERRAEFYFQPWAQEAVCRYFYSKVQQRRQELEQALGIRNT [SMARCD1],0.347,47.4,49.3,-0.0288,0.481,1.5
MAARCSTRWLLVVVGTPRLPAISGRGARPPREGVVGAWLSRKLSVPAFASSLTSCGPRALLTLRPGVSLTGTKHNPFICTASFHTSAPLAKEDYYQILGVPRNASQKEIKKAYYQLAKKYHPDTNKDDPKAKEKFSQLAEAYEVLSDEVKRKQYDAYGSAGFDPGASGSQHSYWKGGPTVDPEELFRKIFGEFSSSSFGDFQTVFDQPQEYFMELTFNQAAKGVNKEFTVNIMDTCERCNGKGNEPGTKVQHCHYCGGSGMETINTGPFVMRSTCRRCGGRGSIIISPCVVCRGAGQAKQKKRVMIPVPAGVEDGQTVRMPVGKREIFITFRVQKSPVFRRDGADIHSDLFISIAQALLGGTARAQGLYETINVTIPPGTQTDQKIRMGGKGIPRINSYGYGDHYIHIKIRVPKRLTSRQQSLILSYAEDETDVEGTVNGVTLTSSGGSTMDSSAGSKARREAGEDEEGFLSKLKKMFTS [DNAJA3],-0.186,48.4,50.3,-0.0129,-0.681,0.373
MAARTVIIDHGSGFLKAGTAGWNEPQMVFPNIVNYLPCKENPGPSYARRRVSLGIDICHPDTFSYPIERGRILNWEGVQYLWSFVLENHRREQEVPPVIITETPLREPADRKKMLEILFELLHVPSVLLADQLQMSLYASGLLTGVVVDSGYGLTRVQPFHQGRPLPASGKTLEFAGQDLSAYLLKSLFKEDCDRRCLFQLETVAVTQMNKCYVPQNLGEALDFRERQQSALDESNTYQLPDGSRVELTPMQRVAPEMFFSPQVFEQPGPSIPRAIVESVESCEISLRPLLVSHVMACGGNTLYPGFTKRLFRELMGDHVSSTKATVWEGSNRNFSVWLGASVVAHLSTYQSEWMSREEYGEHMRM [ACTL8],-0.19,52.8,52.4,0.0715,-0.233,-1.1
MAASALYACTKCTQRYPFEELSQGQQLCKECRIAHPIVKCTYCRSEFQQESKTNTICKKCAQNVKQFGTPKPCQYCNIIAAFIGTKCQRCTNSEKKYGPPQTCEQCKQQCAFDRKEEGRRKVDGKLLCWLCTLSYKRVLQKTKEQRKSLGSSHSNSSSSSLTEKDQHHPKHHHHHHHHHHRHSSSHHKISNLSPEEEQGLWKQSHKSSATIQNETPKKKPKLESKPSNGDSSSINQSADSGGTDNFVLISQLKEEVMSLKRLLQQRDQTILEKDKKLTELKADFQYQESNLRTKMNSMEKAHKETVEQLQAKNRELLKQVAALSKGKKFDKSGSILTSP [FAM76B],-0.529,,51.3,0.486,-0.509,0.107
MAASGEPQRQWQEEVAAVVVVGSCMTDLVSLTSRLPKTGETIHGHKFFIGFGGKGANQCVQAARLGAMTSMVCKVGKDSFGNDYIENLKQNDISTEFTYQTKDAATGTASIIVNNEGQNIIVIVAGANLLLNTEDLRAAANVISRAKVMVCQLEITPATSLEALTMARRSGVKTLFNPAPAIADLDPQFYTLSDVFCCNESEAEILTGLTVGSAADAGEAALVLLKRGCQVVIITLGAEGCVVLSQTEPEPKHIPTEKVKAVDTTGAGDSFVGALAFYLAYYPNLSLEDMLNRSNFIAAVSVQAAGTQSSYPYKKDLPLTLF [RBKS],0.229,57.9,54.8,-0.0848,-2.59,-2.4
MAASGKLSTCRLPPLPTIREIIKLLRLQAAKQLSQNFLLDLRLTDKIVRKAGNLTNAYVYEVGPGPGGITRSILNADVAELLVVEKDTRFIPGLQMLSDAAPGKLRIVHGDVLTFKVEKAFSESLKRPWEDDPPNVHIIGNLPFSVSTPLIIKWLENISCRDGPFVYGRTQMTLTFQKEVAERLAANTGSKQRSRLSVMAQYLCNVRHIFTIPGQAFVPKPEVDVGVVHFTPLIQPKIEQPFKLVEKVVQNVFQFRRKYCHRGLRMLFPEAQRLESTGRLLELADIDPTLRPRQLSISHFKSLCDVYRKMCDEDPQLFAYNFREELKRRKSKNEEKEEDDAENYRL [TFB1M],-0.318,51.7,51.4,0.122,0.388,0.452
MAASRPLSRFWEWGKNIVCVGRNYADHVREMRSAVLSEPVLFLKPSTAYAPEGSPILMPAYTRNLHHELELGVVMGKRCRAVPEAAAMDYVGGYALCLDMTARDVQDECKKKGLPWTLAKSFTASCPVSAFVPKEKIPDPHKLKLWLKVNGELRQEGETSSMIFSIPYIISYVSKIITLEEGDIILTGTPKGVGPVKENDEIEAGIHGLVSMTFKVEKPEY [FAHD1],0.144,53.5,60,-0.257,-1.32,-1.65
MAASVEQREGTIQVQGQALFFREALPGSGQARFSVLLLHGIRFSSETWQNLGTLHRLAQAGYRAVAIDLPGLGHSKEAAAPAPIGELAPGSFLAAVVDALELGPPVVISPSLSGMYSLPFLTAPGSQLPGFVPVAPICTDKINAANYASVKTPALIVYGDQDPMGQTSFEHLKQLPNHRVLIMKGAGHPCYLDKPEEWHTGLLDFLQGLQ [ABHD14B],0.421,52.9,52.7,-0.165,-0.635,-1.1
MAATAREDGASGQERGQRGCEHYDRGCLLKAPCCDKLYTCRLCHDNNEDHQLDRFKVKEVQCINCEKIQHAQQTCEECSTLFGEYYCDICHLFDKDKKQYHCENCGICRIGPKEDFFHCLKCNLCLAMNLQGRHKCIENVSRQNCPICLEDIHTSRVVAHVLPCGHLLHRTCYEEMLKEGYRCPLCMHSALDMTRYWRQLDDEVAQTPMPSEYQNMTVDILCNDCNGRSTVQFHILGMKCKICESYNTAQAGGRRISLDQQ [RCHY1],0.146,51.2,52.3,-0.374,-0.0247,0.646
